Consider five molecules from patent US20190211076A1 (published 2019).

Changes are numbered by the printed parent chain.

First the molecules themselves.
T1: HMHA1 (Rho GTPase-activating protein 45), minor histocompatibility antigen HA-1H, R139H polymorphism peptide … (human)
T1 peptide: VLHDDLLEA

B1: TCR1 (TCR, V domains shown)
Valpha: QQGEEDPQALSIQEGENATMNCSYKTSINNLQWYRQNSGRGLVHLILIRSNEREKHSGRLRVTLDTSKKSSSLLITASRAADTASYFCATKRDSGAGSYQLTFGKGTKLSVIP
Vbeta: GVSQDPRHKITKRGQNVTFRCDPISEHNRLYWYRQTLGQGPEFLTYFQNEAQLEKSRLLSDRFSAERPKGSFSTLEIQRTEQGDSAMYLCASSSTGGHNEQFFGPGTRLTVL
B2: HA-1H TCR2 (TCR, V domains shown)
Valpha: KQEVTQIPAALSVPEGENLVLNCSFTDSAIYNLQWFRQDPGKGLTSLLLIQSSQREQTSGRLNASLDKSSGRSTLYIAASQPGDSATYLCAVIGLGGTYKYIFGTGTRLKVLA
Vbeta: GVSQDPRHKITKRGQNVTFRCDPISEHNRLYWYRQTLGQGPEFLTYFQNEAQLEKSRLLSDRFSAERPKGSFSTLEIQRTEQGDSAMYLCASSLVKGEKLFFGSGTQLSVL
B3: HA-1H TCR16 (TCR, V domains shown)
Valpha: KQEVTQIPAALSVPEGENLVLNCSFTDSAIYNLQWFRQDPGKGLTSLLLIQSSQREQTSGRLNASLDKSSGRSTLYIAASQPGDSATYLCAVHLLNDYKLSFGAGTTVTVRA
Vbeta: B2 Vbeta with K96V, E98N, K99E, L100Q, S104P, Q107R, S109T
B4: TCR5 (TCR, V domains shown)
Valpha: QQGEEDPQALSIQEGENATMNCSYKTSINNLQWYRQNSGRGLVHLILIRSNEREKHSGRLRVTLDTSKKSSSLLITASRAADTASYFCATNSGNTPLVFGKGTRLSVIA
Vbeta: GVSQDPRHKITKRGQNVTFRCDPISEHNRLYWYRQTLGQGPEFLTYFQNEAQLEKSRLLSDRFSAERPKGSFSTLEIQRTEQGDSAMYLCASSLTTLDEQYVGPGTRLTVT
B5: TCR10 (TCR, V domains shown)
Valpha: KNQVEQSPQSLIILEGKNCTLQCNYTVSPFSNLRWYKQDTGRGPVSLTIMTFSENTKSNGRYTATLDADTKQSSLHITASQLSDSASYICVVDSGGGADGLTFGKGTHLIIQP
Vbeta: B4 Vbeta with L94M, T95L, L97N, D98Y, V102F

This test deals with T1, HMHA1 (Rho GTPase-activating protein …). Briefly: chromium release, peptide titration on pulsed target cells; one value stated for the seven clones together (FIG. 2B); T cell clone or line. The protocol: (A) HLA-A2/HA-1^H multimer and CD8⁺ monoclonal antibody staining of seven (7) representative HA-1^H specific clones (1, 2, 10, 13, […], 16, and 5) and a control clone specific for another tumor antigen. (B) Data from a chromium release assay in which the seven HA-1^H-specific clones were tested for killing HA-1 peptide-pulsed target cells. (C) Data from cytotoxicity assays in which the HA-1^H-specific CTL clones were incubated with peptide-pulsed T2 cells, HA-1^H+ AML cell line THP-1, HA-1^H+ primary AML, or HA-1⁻ AML.
In addition, a chromium release assay (CRA) was used to test 7 of the HA-1-specific CTL clones (1, 2, 10, 13, 14, 16 and 5) for killing of HA-1^H peptide-pulsed targets. The T cell clones recognized HA-1^H peptide ([…])-pulsed target cells at very low peptide concentrations and half-maximal lysis is seen at a peptide concentration of 10 pM. (FIG. 2B) (ICC data not shown). Cytotoxicity of the isolated clones against cells with or without endogenous HA-1^H expression was also examined. The assays show 7 HA-1^H-specific CTL clones (TCR1, TCR2, TCR10, TCR13, TCR14, TCR16 and TCR5) lysing HA-1^H+ acute myeloid leukemia (AML) cell line (THP-1) and HA-1^H+ primary AML but not HA-1^H- AML (FIG. 2C).
B1 registered an EC50 of peptide of 0.01 nM.

B2 gave an EC50 of peptide of 0.01 nM.

Turning to B3, the EC50 of peptide worked out at 0.01 nM.

As to B4, the EC50 of peptide came out at 0.01 nM.

In turn, B5 yielded an EC50 of peptide of 0.01 nM.
